Experimental findings from PMC3888415 are described below.

Like-named read-outs stand apart in the source and are kept apart here.

Experiment [1] addresses human α-thrombin (human). The experiment in a line: ELISA; thrombin capture assay: thrombin (5 µg/ml) coated on microtiter wells in PBS; cleared bacterial lysates applied neat for one hour; detected with HRP-conjugated sheep anti-human API; OD 450 nm, for P7–P3 variants normalized to API M358R lysate. In general terms: An ELISA detects its analyte on a solid surface through an enzyme-linked reagent.

Experiment [2] addresses human α-thrombin (human). Put plainly: discontinuous thrombin inhibition assay (second order rate constant k2); pseudo first order conditions; purified API proteins and thrombin; mean ± SD of 5 determinations.
The target in experiment [3] is human α-thrombin (human). Put plainly: ELISA; thrombin capture assay: thrombin (5 µg/ml) coated on microtiter wells in PBS; cleared bacterial lysates applied neat for one hour; detected with HRP-conjugated sheep anti-human API; OD 450 nm, for P7–P3 variants normalized to API M358R lysate. This is another data set of the same source.

“API M358R P7–P3 variant AAFVS (from UniProt P01009 25-418)”: in the experiment with human α-thrombin (human) [1], the relative OD450 versus API M358R is 3.01. In the experiment with human α-thrombin (human) [2], the k2 (second order rate constant of thrombin inhibition) (mol^−1 sec^−1) is 1.01e+06.
“API M358R P7–P3 variant DAFAA (from UniProt P01009 25-418)” returned a relative OD450 versus API M358R with human α-thrombin (human) [1] of 1.59.
Take “API M358R P7–P3 variant DITMA (from UniProt P01009 25-418)”: the results for the relative OD450 versus API M358R with human α-thrombin (human) [1] and with human α-thrombin (human) [3] were 1.64 and 1.7, respectively. In the experiment with human α-thrombin (human) [2], the k2 (second order rate constant of thrombin inhibition) (mol^−1 sec^−1) is 1e+06.
Substance “API M358R P7–P3 variant DLTVS (plaque consensus) (from UniProt P01009 25-418)” displayed a k2 (second order rate constant of thrombin inhibition) (mol^−1 sec^−1) in the experiment with human α-thrombin (human) [2] of 529000.
“API M358R P7–P3 variant DVTVS (from UniProt P01009 25-418)” had a relative OD450 versus API M358R with human α-thrombin (human) [1] of 1.42.
In the case of “API M358R P7–P3 variant EAHFR (from UniProt P01009 25-418)”, in the experiment with human α-thrombin (human) [1], the relative OD450 versus API M358R was determined as 1.51.
As to “API M358R P7–P3 variant EATVS (from UniProt P01009 25-418)”, in the experiment with human α-thrombin (human) [1], the relative OD450 versus API M358R worked out at 1.54. The substance further yielded a k2 (second order rate constant of thrombin inhibition) (mol^−1 sec^−1) with human α-thrombin (human) [2] of 617000.
Consider “API M358R P7–P3 variant EISLQ (from UniProt P01009 25-418)”, for which, in the experiment with human α-thrombin (human) [1], the relative OD450 versus API M358R was 2.61. In addition, the k2 (second order rate constant of thrombin inhibition) (mol^−1 sec^−1) with human α-thrombin (human) [2] was 783000.
In the experiment with human α-thrombin (human) [1], “API M358R P7–P3 variant FHTLG (from UniProt P01009 25-418)” yielded a relative OD450 versus API M358R of 2.13.
For the substance “API M358R P7–P3 variant HATVS (from UniProt P01009 25-418)”, in the experiment with human α-thrombin (human) [1], the relative OD450 versus API M358R stood at 1.99. This substance also came in with a k2 (second order rate constant of thrombin inhibition) (mol^−1 sec^−1) with human α-thrombin (human) [2] of 504000.
Consider “API M358R P7–P3 variant ISSAN (from UniProt P01009 25-418)”, for which the relative OD450 versus API M358R with human α-thrombin (human) [1] came out at 1.46.
In turn, “API M358R P7–P3 variant LAITS (from UniProt P01009 25-418)” came in with a relative OD450 versus API M358R in the experiment with human α-thrombin (human) [1] of 1.45.
In the experiment with human α-thrombin (human) [1], “API M358R P7–P3 variant LASMR (from UniProt P01009 25-418)” had a relative OD450 versus API M358R of 1.89. In addition, in the experiment with human α-thrombin (human) [2], the k2 (second order rate constant of thrombin inhibition) (mol^−1 sec^−1) was 895000.
For “API M358R P7–P3 variant LATVS (lysate consensus) (from UniProt P01009 25-418)”, the k2 (second order rate constant of thrombin inhibition) (mol^−1 sec^−1) in the experiment with human α-thrombin (human) [2] turned out to be 765000. The relative OD450 versus API M358R with human α-thrombin (human) [3] is 1.5.
“API M358R P7–P3 variant LHTLG (from UniProt P01009 25-418)”: the k2 (second order rate constant of thrombin inhibition) (mol^−1 sec^−1) with human α-thrombin (human) [2] was 786000. Besides, the relative OD450 versus API M358R with human α-thrombin (human) [3] was found to be 2.1.
In the experiment with human α-thrombin (human) [1], “API M358R P7–P3 variant LINPI (from UniProt P01009 25-418)” came in with a relative OD450 versus API M358R of 1.54.
“API M358R P7–P3 variant LSELA (from UniProt P01009 25-418)” yielded a relative OD450 versus API M358R with human α-thrombin (human) [1] of 1.28.
As for “API M358R P7–P3 variant LTTLR (from UniProt P01009 25-418)”, the relative OD450 versus API M358R with human α-thrombin (human) [1] is 2.09. Further, the k2 (second order rate constant of thrombin inhibition) (mol^−1 sec^−1) with human α-thrombin (human) [2] stood at 896000.
In turn, “API M358R P7–P3 variant NLIPT (from UniProt P01009 25-418)” yielded a k2 (second order rate constant of thrombin inhibition) (mol^−1 sec^−1) with human α-thrombin (human) [2] of 176000.
On to “API M358R P7–P3 variant QATFL (from UniProt P01009 25-418)”, for which the relative OD450 versus API M358R with human α-thrombin (human) [1] came to 1.91. The substance also showed a k2 (second order rate constant of thrombin inhibition) (mol^−1 sec^−1) with human α-thrombin (human) [2] of 593000.
In the experiment with human α-thrombin (human) [1], “API M358R P7–P3 variant QVKPA (from UniProt P01009 25-418)” showed a relative OD450 versus API M358R of 1.37.
In the experiment with human α-thrombin (human) [1], “API M358R P7–P3 variant TLSAV (from UniProt P01009 25-418)” had a relative OD450 versus API M358R of 1.36.
Regarding “API M358R P7–P3 variant TVSVS (from UniProt P01009 25-418)”, the relative OD450 versus API M358R with human α-thrombin (human) [1] stood at 1.49.
Take “API M358R P7–P3 variant VTTIT (from UniProt P01009 25-418)”: in the experiment with human α-thrombin (human) [1], the relative OD450 versus API M358R is 1.9.
As to “recombinant hexahistidine-tagged API M358R (from UniProt P01009 25-418) (natural protein)”, the k2 (second order rate constant of thrombin inhibition) (mol^−1 sec^−1) in the experiment with human α-thrombin (human) [2] stood at 487000.
